B1: GS728: dsRNA trigger targeting B. cinerea XM_024691746.1; trigger SEQ ID NO 18, RNA 30, reverse complement 42 (nucleic acid, listed as Botrytis cinerea)
sense: CACAAGAAGCAUGGGGUAUGAAGAGAUAAGUUGUGGCUGGUGAACAACUAAAUCGACAUUUUCCGUCCCCACAGCACCUUUCGAACACUGAAUUCAAUUAAUUAUACACUGUUCCAGUAUCCACUUCCACUUCCACUCCCACAAAACAUACAAUACUACGAUAAUACGAUUUUACGAUAACGUCCAGCCUUGAGGACAACAAGUCAGAUGAAAAUCACGAGAUGGCAUUGUUUUUGAUGUUAGUAAAUGCUAUACCGACGGUAAUCGGCACUGCUGAAGCAUUAGAUGUUCAGAAGAAGGAAGAUUUGGCCCAGAAGCACAAGGCAAAGUUUUUCAUGACGGCGAAUUUUGCUUUGGAUGGAAAGGUUGCUCAUGAAAAAGAAUCACAGGUCGUCCUACGCGAUAACAGGAUGUACUUAAACCACCCAGAUGCGCCGAAAGAAGGACAUCGAUUUUGUGGUUACUAUUUCAUGUAUC
antisense: GAUACAUGAAAUAGUAACCACAAAAUCGAUGUCCUUCUUUCGGCGCAUCUGGGUGGUUUAAGUACAUCCUGUUAUCGCGUAGGACGACCUGUGAUUCUUUUUCAUGAGCAACCUUUCCAUCCAAAGCAAAAUUCGCCGUCAUGAAAAACUUUGCCUUGUGCUUCUGGGCCAAAUCUUCCUUCUUCUGAACAUCUAAUGCUUCAGCAGUGCCGAUUACCGUCGGUAUAGCAUUUACUAACAUCAAAAACAAUGCCAUCUCGUGAUUUUCAUCUGACUUGUUGUCCUCAAGGCUGGACGUUAUCGUAAAAUCGUAUUAUCGUAGUAUUGUAUGUUUUGUGGGAGUGGAAGUGGAAGUGGAUACUGGAACAGUGUAUAAUUAAUUGAAUUCAGUGUUCGAAAGGUGCUGUGGGGACGGAAAAUGUCGAUUUAGUUGUUCACCAGCCACAACUUAUCUCUUCAUACCCCAUGCUUCUUGUG
B2: GS793: dsRNA trigger targeting B. cinerea Bcswd2 (XM_024694665.1); trigger SEQ ID NO 20, RNA 32, reverse complement 44 (nucleic acid, listed as Botrytis cinerea)
sense: CUGCGUCACUAUAUGGUCCUAGACUUUUCAACUCCCUCUUUGAAGCUUACACAACAUCUUGGAAAAGUAUAAAAACAACAACAAGAAACAUGUCGUCAACCCCUAUGGCGAUAGACUCUCCAUUAGGUGCGAAUGGUACUUCCAUGUUGAAAGCAAACGGAGUCUCAUCAGUCCCACAGACUGGCAAACUGACUGAGAUGAUCUCAUUAUACCAUCCAGUCAAGCUUUUCAAACAUCCUCCGACACCUGCAGACAAAGGGCAAACUCCUCCGAGUUACAACUUUAUUCAGUCUAUCAAUUUCAAUGACAAUGGCAGUCAGCUUAUCACGUCAGAAACUGAUAACACUAUGCAAAUAUAUGAUGUUCUCGAAGGAAGACAUUCAAAAAUGAAUAUUAGUGCCAAGUAUGGUUGUAACCAUGCAAUGUUUGGCCAUGCUGAACAUUGUAUAAUCCAUUCUAGUACCAAAAAAGACCACAA
antisense: UUGUGGUCUUUUUUGGUACUAGAAUGGAUUAUACAAUGUUCAGCAUGGCCAAACAUUGCAUGGUUACAACCAUACUUGGCACUAAUAUUCAUUUUUGAAUGUCUUCCUUCGAGAACAUCAUAUAUUUGCAUAGUGUUAUCAGUUUCUGACGUGAUAAGCUGACUGCCAUUGUCAUUGAAAUUGAUAGACUGAAUAAAGUUGUAACUCGGAGGAGUUUGCCCUUUGUCUGCAGGUGUCGGAGGAUGUUUGAAAAGCUUGACUGGAUGGUAUAAUGAGAUCAUCUCAGUCAGUUUGCCAGUCUGUGGGACUGAUGAGACUCCGUUUGCUUUCAACAUGGAAGUACCAUUCGCACCUAAUGGAGAGUCUAUCGCCAUAGGGGUUGACGACAUGUUUCUUGUUGUUGUUUUUAUACUUUUCCAAGAUGUUGUGUAAGCUUCAAAGAGGGAGUUGAAAAGUCUAGGACCAUAUAGUGACGCAG
B3: GS686: dsRNA trigger targeting B. cinerea Bcrrp1 (XM_001550365.2); trigger SEQ ID NO 17, RNA 29, reverse complement 41 (nucleic acid, listed as Botrytis cinerea)
sense: CCCCUCCACCCAAGCACCUUUCUACACCGGAUUCUGGGAAAUCAUGUCCAAAGAAUGGGAACGCAUUGAUGUGCUGCGCAUGGAGAAAUUCCUGCUGCUAGUGAGACGCUAUUUGGCAGCUGGUUUUGAGGUUGUGGUAUCCAGCUCUUCCGCACCUGCGGGAAAGAAAAACAAGACGAAAGCUUCGAAGAAAGUGAUUUCGGAAUCCGGAGAGCAGGUAUUAGAAGUCCUAUCUUCCAUUCCCUGUGGUUCGGGCCCCGAUGCGCAACGCACACCGAAUGGAAUGCGCUUCCACGUAAUCGAUAUCUGGAUCGACGAGCUUGAGAAACUGGGUGUGAUCGACGCAGCGAAGGAGAGUGAAGAGGGCGCUGAGAAAUUAGAGAAAUUACUGGAGCCGUUGAGGAAAUUGGGAAAGGAGAGCAUUAAUAAGACGGUCAGGAAUAAGUGUAAGGAGGC
antisense: GCCUCCUUACACUUAUUCCUGACCGUCUUAUUAAUGCUCUCCUUUCCCAAUUUCCUCAACGGCUCCAGUAAUUUCUCUAAUUUCUCAGCGCCCUCUUCACUCUCCUUCGCUGCGUCGAUCACACCCAGUUUCUCAAGCUCGUCGAUCCAGAUAUCGAUUACGUGGAAGCGCAUUCCAUUCGGUGUGCGUUGCGCAUCGGGGCCCGAACCACAGGGAAUGGAAGAUAGGACUUCUAAUACCUGCUCUCCGGAUUCCGAAAUCACUUUCUUCGAAGCUUUCGUCUUGUUUUUCUUUCCCGCAGGUGCGGAAGAGCUGGAUACCACAACCUCAAAACCAGCUGCCAAAUAGCGUCUCACUAGCAGCAGGAAUUUCUCCAUGCGCAGCACAUCAAUGCGUUCCCAUUCUUUGGACAUGAUUUCCCAGAAUCCGGUGUAGAAAGGUGCUUGGGUGGAGGGG

How the values were obtained:
[1] = tested on: Botrytis cinerea isolate (B05.10); assay: Detached leaf assay (tomato leaflets, lesion size); assay type: in vivo; conditions: five days post inoculation, vs untreated inoculated control
Method in brief: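 Tomato (Brandywine) detached lateral leaflets were sprayed with treatment in 0.03% Silwet L-77 24 h before inoculation. Two 10 μL drops of 1×10^5 conidia/mL in 7% grape juice were applied per leaflet, which was then incubated at 23 °C, ~75% RH, 12/12 light. Lesion diameter was measured at 5 DPI against the untreated inoculated control, ten replicates.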

[2] = tested on: Botrytis cinerea conidia; assay: In vitro liquid-based assay (fungal biomass, 96-well plates, Cytation 5); assay type: cell-based; conditions: co-incubated with conidia for three days, vs untreated control
Method in brief: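 Conidia (5000/mL stock) were co-incubated with dsRNA or control treatments in pH 6.0 minimal medium. Incubation ran 72 h at 23 °C, shaking at 120 rpm under continuous light. Fungal biomass was measured by brightfield imaging (8 slices per well, 2.5× lens) and expressed as average reduction versus control.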

[3] = tested on: Botrytis cinerea B05.10 isolate; assay: Greenhouse whole plant assay (tomato 'Lanai', disease severity); assay type: in vivo; conditions: final rating day (rating #3)
Description: Plant Tissue: Tomato seedlings, variety “Lanai”, were seeded then thinned to one plant per pot in an 18 cell tray. […] Plants were grown at a 23° C./17° C. day/night temperature with 10 hours of light each 24-hour period. The RH was ambient and plants were fertilized two times a day every day except for Sunday when they received only water. Plants were grown using Fafard brand medium (70-80% sphagnum peat moss, perlite, vermiculite, dolomite limestone and watering agent) for the entire experiment.
Fungal culture. A Botrytis cinerea B05.10 isolate was maintained, and spores were harvested as previously described for detached leaf assays, except a grape juice additive was not used for inoculum preparation.
Treatment of plants. Whole tomato plants were treated ˜24 hours before inoculation using the spray booth. A 0.07% Silwet L-77 solution was used as a spreader and added for a 0.07% final volume in water (Silwet L-77 brand Phyto Technology Laboratories, S7777 Lot #14D7777001 F). The spray booth deck was set to 20″ above the plant canopy and a twinjet 8002EVS nozzle with 100 mesh filter placed into the spray mechanism. The spray boom was calibrated before treatment application with specs as follows: 50 GPA rate, 1.25 MPH speed, 6′ spray length, single pass, and at 45 psi to get a catch of 133 mL in 10 seconds (+/−6 mL). Each treatment was replicated ten times for each experimental run.
Inoculation. Plants were inoculated using a mist-o-matic applicator, which is pressurized by manual pumping. The inoculum suspension was poured into the mist-o-matic immediately before inoculation in the GH space. The containers were only filled half-way and inoculum was applied evenly to the surface of all foliage with even coverage.
Incubation. Plants were incubated inside of a 40″ tall humidity chamber supported by PVC pipe and covered in 3M translucent plastic. A humidifier was inside the chamber and set to low and continuous humidity (filled with tap water). The temperature was D:24-20° C./N:20-18° C. with 15 hours of light, of which 9 hours was with supplemental lighting. RH was ambient and watering occurred everyday by sub-irrigation with the bench being flooded for 10 minutes before draining.
Rating. Tomato plants were rated three times during the two-week experiment with rating starting four days post-inoculation and occurring every three to four days after the initial rating date. Plants were rated for the number of lesions and disease severity, which is the percentage of the plant that was symptomatic including necrotic lesions, pathogen sporulation, and chlorosis.
Data analysis. […] Percent disease severity (%DS) was determined by the percent area of the tomato foliage with symptoms including lesions, chlorosis, necrosis, and wilting. Disease severity was rated at three dates (Rating #) over the 12-day test period. Treatments were compared to the untreated, inoculated control and a chemical standard. Statistical analysis was done using SAS JMP version 13.2.1 with treatments compared to the untreated, inoculated control and a chemical standard using Tukey-Kramer and student's T tests.

[4] = 8 g ai/ha, two runs, three-week-old 'Lanai' tomato plant
[5] = 25 g ai/ha, two runs, three-week-old 'Lanai' tomato plant

Row | Molecule | Average % Reduction in Lesion Size ([1]; 30 ppm) [%] | Average % Reduction in Lesion Size ([1]; 50 ppm) [%] | Average % Reduction in Biomass ([2]; 25 ppm dsRNA) [%] | Average % Reduction in Biomass ([2]; 150 ppm dsRNA) [%] | % control [3, 4] [%] | % control [3, 5] [%] | % control ([3]; 25 g ai/ha, three runs, four-week-old 'Lanai' tomato plant) [%]
1 | B1 | 20.16 | 16.48 | 20 | 35 | 27 | 37 | –
2 | B2 | 55.26 | 57.69 | 13 | 36 | – | – | 24
3 | B3 | 39.61 | 33.29 | 16 | 37 | 31 | 14 | –

From patent US20230189818A1, “RNA-BASED CONTROL OF BOTRYTIS” (priority 2021, published 2023)
